Here are results for 40 sequences from the nanobody polyreactivity screen of Harvey et al. (2022).

The series in a line: yeast display, Sf9 membrane polyspecificity reagent, FACS + sequencing; frameworks hold sequencing errors. Summed up:
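Nanobodies came from a synthetic yeast display library in Saccharomyces cerevisiae BJ5465, induced with galactose for 36–48 hours and stained for 1 hour at 4 °C with 10% biotinylated, detergent-solubilized Sf9 membrane reagent. Cells were enriched on streptavidin microbeads and then FACS-sorted, with low and high (top ~1%) gates set on anti-HA fluorescence for expression and streptavidin fluorescence for reagent binding. Each polyreactivity label reflects the gate a clone came from. Genes were amplified by colony PCR, sequenced by MiSeq 2 × 250 and filtered by CDR length.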
Regarding “QVQLVESGGGLVQAGGSLRLSCAASGSIFPGNAMRWYRQAPGKERELVATITWSGGSTYYADSVKGRFTISRDNAKNTVYLQINSLKPEDTAVYYCNADSNWYYQWNYYGLYDYWGQGTQVTVSS”, the “polyreactivity (PSR sort gate)” value is recorded as “low polyreactivity”.

On to “QVQLVESGGGLVQAGGSLRLSCAASGSIFPGYAMGWYRQAPGKERELDATITWSGGSTYYADSVKGRFTISRDTAKNTVYLQMNSLKPEDTAVYYCNADSNWYYQWNYYGLYDYWGQGTQVTVSS”, for which the “polyreactivity (PSR sort gate)” value is “low polyreactivity”.

Consider “QVQLVESGGGLVQAGGSLRLSCAASGSIFPGYAMGWYRQAPGKERELVAGITWSDARTYYADSVKGRFTISRDNAKNTVYLQMNCLKPEDTAVYYCAADYYYYELDYWGKGTQVTVSS”, for which the “polyreactivity (PSR sort gate)” value was “low polyreactivity”.

For the sequence “QVQLVESGGGLVQAGGSLRLSCAASGSIFPGYAMGWYRQAPGKERELVATITYSDGSTYYADSVKGRFTISRDNAKNTVSLQMNSLKPEDTAVYYCNAASRGAGTSIWSWYDHWGQGTQVTVSS”, the “polyreactivity (PSR sort gate)” value was “low polyreactivity”.

As to “QVQLVESGGGLVQAGGSLRLSCAASGSIFPGYTMGWYRQAPGKERELVAAITSSGGSTYYADSVKGRFTISRDNAKNTVYLQMNSLKPEDTAVYYCAADTTNYFDPFDYWGQGTQVTVSS”, the “polyreactivity (PSR sort gate)” value is given as “low polyreactivity”.

Take “QVQLVESGGGLVQAGGSLRLSCAASGSIFPHNTMGWYRQAPGKERELVAAITRDGTSTYYADSVKGRFTISRDNAKNTVYLQMNSLKPEDTAVYYCAARRARSFYVTYYGVGFNYWGQGTQVTVSS”: the “polyreactivity (PSR sort gate)” value was “low polyreactivity”.

Regarding “QVQLVESGGGLVQAGGSLRLSCAASGSIFPHYAMGWYRQAHGKERELVAAMSYSGGRTYYADSVKGRFTISRDNAKNTVYLQMNSLKPEDTAVYYCAKPERVLYHGDYWGQGTQVTVSS”, the “polyreactivity (PSR sort gate)” value is reported as “low polyreactivity”.

Regarding “QVQLVESGGGLVQAGGSLRLSCAASGSIFPHYAMGWYRQAPGKERELVAAISRGGSTNYADSVKGRFTISRDNAKNTVYLQMNSLKPEDTAVYYCAAQGNRYANDYWGQGTQVTVSS”, the “polyreactivity (PSR sort gate)” value is given as “high polyreactivity”.

Take “QVQLVESGGGLVQAGGSLRLSCAASGSIFPINAMGWYRQAPGKERELVAVITSGGGGTYYADSVKGRFTISRDNAKNTVYLQMNSLKPEDSAVYYCAKRLSRKWQKFGYWGQGSQVTVSS”: the “polyreactivity (PSR sort gate)” value is recorded as “low polyreactivity”.

Consider “QVQLVESGGGLVQAGGSLRLSCAASGSIFPKYAMGWYRQAPGKERELVAAITSSGGRTYYADSVKGRFSISRDNAKNTVYLQMNSLKPEDTAVYYCAARYRREAAYGFDYWGQGTQVTVSS”, for which the “polyreactivity (PSR sort gate)” value is listed as “high polyreactivity”.

For “QVQLVESGGGLVQAGGSLRLSCAASGSIFPKYAMGWYRQAPGKERELVATISYRGGRTYYADSVKGRFTISRDNAKNTVYLQMNSLKPEDTAVYYCAGADYGSYPTYGYFEYYYWGQGTQVTVSS”, the “polyreactivity (PSR sort gate)” value was “low polyreactivity”.

On to “QVQLVESGGGLVQAGGSLRLSCAASGSIFPLSAMGWYRQAPGKERELVAAITWRGGSTYYADSVKGRFTISRDNAKNTVYLQMNSLKPEDTAVYYCNRDLVPRFDYWGQGTQVTVSS”, for which the “polyreactivity (PSR sort gate)” value was “low polyreactivity”.

As for “QVQLVESGGGLVQAGGSLRLSCAASGSIFPLYGMGWYRQAPGKERELVGAISIGGRTNYADSVKGRFTISRDNAKNTVYLQMNSLKPEDTAVYYCNAVSKFVYRNRILWYDYWGQGTQVTVSS”, the “polyreactivity (PSR sort gate)” value was “high polyreactivity”.

For “QVQLVESGGGLVQAGGSLRLSCAASGSIFPPYAMGWYRQAPGKERELVAAIDWGGSSTYYADSVKGRFTISRDNAKNTVYLQMNSLKPEDTAVYYCAAEVVHGYYLYEYWGQGTQVTVSS”, the “polyreactivity (PSR sort gate)” value is reported as “high polyreactivity”.

“QVQLVESGGGLVQAGGSLRLSCAASGSIFPRNAMGWYRQAPGKERELVARINSGGTTKYADSVKGRFTISRDNAKNTVYLQMNSLKPEDTAVYYCNADTYILDPLRKSYGYDYWGQGTQVTVSS”: the “polyreactivity (PSR sort gate)” value was “low polyreactivity”.

On to “QVQLVESGGGLVQAGGSLRLSCAASGSIFPRYAMGWYRQAPGKERELVAAITGSGSSTYYADSVKGRFTISRDNAKNTVYLQMNSLKPEDTAVYYCAARKARPPFPHPFDYYWGQGTQVTVSS”, for which the “polyreactivity (PSR sort gate)” value is given as “low polyreactivity”.

As to “QVQLVESGGGLVQAGGSLRLSCAASGSIFPSYGMGWYRQAPGKERELVARITSGGGTNYADSVKGRFTISRDNAKNTVYLQMNSLKPEDTAVYYFNKAFRGSQGHRGHYRYGYWGQGTQVTVSS”, the “polyreactivity (PSR sort gate)” value is reported as “high polyreactivity”.

Regarding “QVQLVESGGGLVQAGGSLRLSCAASGSIFPTNAMGWYRQAPGKERELVAAISSRDGSTYYADSVKGRFTISRDNAKNTVYLQMNSLKPEDTAVYYCNTDHDPIYFYITRHDSWGQGTQVTVSS”, the “polyreactivity (PSR sort gate)” value is on record as “low polyreactivity”.

With “QVQLVESGGGLVQAGGSLRLSCAASGSIFPTYAMGWYRQAPGKEWELVAAIRGDGSTNYADSVKGRFTISRDNAKNTVYLQMNSLKPEDTAVSYCAAVSSEYVFRYGGYWGQGTQVTVSS”, the “polyreactivity (PSR sort gate)” value is “low polyreactivity”.

With “QVQLVESGGGLVQAGGSLRLSCAASGSIFPVNAMGLYRQAPGKERELVAAINTSSGSTYYADSVKGRFTISRDNAKNTVYLQMNSLKPEDTAVYYCAAVYVASGYRYGYWGQGTQVTVSS”, the “polyreactivity (PSR sort gate)” value was “high polyreactivity”.

Take “QVQLVESGGGLVQAGGSLRLSCAASGSIFPVNVMGWYRQEPGKERELVARITSGGSTIYADSVKGRFTISRDNAKNTVYLQMNSLKPEDTAVYYCAARQYHWYLPSYWYRYDYWGQGTQVTVSS”: the “polyreactivity (PSR sort gate)” value is “high polyreactivity”.

On to “QVQLVESGGGLVQAGGSLRLSCAASGSIFPWNAMGWYRQAPGKERELVAAISFSSGGSTYYADSVKGRFTISRDNAKNTVYLQMNSLKPEDPAVYYCAARTKLWVLGNYYYWGQGTQVTVSS”, for which the “polyreactivity (PSR sort gate)” value is “high polyreactivity”.

Consider “QVQLVESGGGLVQAGGSLRLSCAASGSIFPWYTMGWYRQAPGKEREFVAAISWSGGSTYYADSVKGRFTISRDNAKNTDYLQMNSLKPEETAVYYCAASRRPWYRAVTWNAGDYWGQGTQVTVSS”, for which the “polyreactivity (PSR sort gate)” value is recorded as “high polyreactivity”.

As for “QVQLVESGGGLVQAGGSLRLSCAASGSIFPYNAMGWYRQAPGKERELVAAITTSGTSTYYADSVKGRFTISRDNAKNTVYLQMNSLKPEDTAVYYCAATSRGAISKARFYYWGQGTQVTVSS”, the “polyreactivity (PSR sort gate)” value was “high polyreactivity”.

On to “QVQLVESGGGLVQAGGSLRLSCAASGSIFPYNAMGWYRQAPGKERELVATISSGGSTNYADSVKGRFTISRDNAKNTVYLHMNSLKPEDTAVYYCAADVIVFYYAPNYWGDIGYGYWGQGTQVTVSS”, for which the “polyreactivity (PSR sort gate)” value is recorded as “low polyreactivity”.

On to “QVQLVESGGGLVQAGGSLRLSCAASGSIFPYYAMGWYRPAPGTERELVAAISRGGGTTYYADSVKGRFTISRDNAKNTVYLQMNSLKPEDTAVYYCAARQWRISTPYDYWGQGTQVTVSS”, for which the “polyreactivity (PSR sort gate)” value is listed as “high polyreactivity”.

On to “QVQLVESGGGLVQAGGSLRLSCAASGSIFPYYAMGWYRQAPGKERELVAAINWIGGSTYYADSVKGRFTISRDNAKNTVYLQMNSLKPEDTAVYYCAVDYYSYYYEYDYWGQGTQVTVSS”, for which the “polyreactivity (PSR sort gate)” value is “high polyreactivity”.

For “QVQLVESGGGLVQAGGSLRLSCAASGSIFPYYAMGWYRQAPGKERELVAAITGAGSTNYADSVKGRFTISRDNAKNTVYLQMNSLKPEDTAVYYCAADFGSPDKWRDWYDYWGQGTQVTVSS”, the “polyreactivity (PSR sort gate)” value is recorded as “low polyreactivity”.

For the sequence “QVQLVESGGGLVQAGGSLRLSCAASGSIFPYYAMGWYRQAPGKERELVAAITYIGGDTYYADSVKGRFTISRDNAKNTVYLQMNSLKPEDTAVYYCAAELSWRQYDYEYWGQGTQVTVSS”, the “polyreactivity (PSR sort gate)” value is recorded as “low polyreactivity”.

Take “QVQLVESGGGLVQAGGSLRLSCAASGSIFPYYTMGWYRQAPGKERELVAAISGSGGSTYYADSVKGRFTISRDNAKNTVYLQMNSLKPEDTAVYYCAAYRRTWFDYWGQGTQVNVSS”: the “polyreactivity (PSR sort gate)” value is listed as “high polyreactivity”.

On to “QVQLVESGGGLVQAGGSLRLSCAASGSIFPYYTMGWYRQAPGKERELVATITTGGSTNYADSVKGRFTISRDNAENTVYLQMNCLKPEDIAVYYCNKDGVVEVRFTGRQEYDYWGQGTQVTVSS”, for which the “polyreactivity (PSR sort gate)” value is “low polyreactivity”.

Turning to “QVQLVESGGGLVQAGGSLRLSCAASGSIFQGNAMGWYTQAPGKERELVAAITYSGGSTYYADSVKGRFTISRDNAKNTVYLQMNSLKAEDTAVYYCNTTLRDSRQYVDRAQYNRYDYWGQGTQVTVSS”, the “polyreactivity (PSR sort gate)” value is “low polyreactivity”.

For the sequence “QVQLVESGGGLVQAGGSLRLSCAASGSIFQHNDMGWYRQAPGKERELVAAMSRSGGSTYYADSVKGRFTISRDNAKNTVYLQRNSLKPEDTAVYYCNAGRRTGRYAYWGQGTQVTVSS”, the “polyreactivity (PSR sort gate)” value is recorded as “high polyreactivity”.

Turning to “QVQLVESGGGLVQAGGSLRLSCAASGSIFQPNGMGWYRQAPGQEREFVARIDRSGGSTYYADSVKGRFTISRDNAKNTVYLQMNSLKPEDTAVYYCHAAGEVIGYDYWGQGTQVTVSS”, the “polyreactivity (PSR sort gate)” value is “low polyreactivity”.

As to “QVQLVESGGGLVQAGGSLRLSCAASGSIFQPYAMGWYRQAPGKERELVAAISSSGGSTTYADSVKGRFTISRDNAKNTVYLQMNSLKPEDTAVYYCAADVEYKVFPGDYWGQGTQVTVSS”, the “polyreactivity (PSR sort gate)” value is recorded as “low polyreactivity”.

Consider “QVQLVESGGGLVQAGGSLRLSCAASGSIFQRTAMGWYRQAPGNERELVASINSGGSTNYADSVKGRFTISRDNAKNTVYLQMNSLKPEDTAVYYCAAVRPWWRNKPQWPRYDYWGLGTQVTVSS”, for which the “polyreactivity (PSR sort gate)” value is reported as “low polyreactivity”.

As for “QVQLVESGGGLVQAGGSLRLSCAASGSIFQRYTMGWYRQAPGKERELVAAITSRSGRTYYADSVKGRFTISRDNAKNTVYLQMNSLKPEDTAVYYCATVPYDQTRGYKYDYWGQGTQVTVSS”, the “polyreactivity (PSR sort gate)” value is “high polyreactivity”.

For the sequence “QVQLVESGGGLVQAGGSLRLSCAASGSIFQSYAMGWYRQAPGKERELVATITISDGSTYYADSVKGRFTISRDNAKNTVYLQMNSLKPEDTAVYYCAATDYISYGAPLRRGLNYDYWGQGTQVTVSS”, the “polyreactivity (PSR sort gate)” value was “low polyreactivity”.

Consider “QVQLVESGGGLVQAGGSLRLSCAASGSIFQSYDMGWYRQAPGKERELVAAIRSGDSTYYADSVKGRFTISRDNAKNTVYLQMNSLKPEDTAVYYCNKDEATFLSKDGYWGQGTQVTVSS”, for which the “polyreactivity (PSR sort gate)” value was “low polyreactivity”.

In the case of “QVQLVESGGGLVQAGGSLRLSCAASGSIFQWNAMGWYRQAPGKERELVAAISSGTSTNYADSVKGRFTISRDNAKNTVYLQMNSLKPEDTAVYYCAAEGRGWAAFEVGYWGQGTLVTVSS”, the “polyreactivity (PSR sort gate)” value is “low polyreactivity”.
